In patent US20230295310A1 (ABCELLERA BIOLOGICS, published 2023):

Biological target: human EGFR, C-terminal eGFP-tagged, on CHO-K1 cells (human, UniProt P00533 25-1210)
Experiment: cell-based or functional assay

Binder | EC50 CHO-K1 EGFR Low (nM); T cell activation bioassay, luciferase [nM] | EC50 CHO-K1 EGFR Med (nM); T cell activation bioassay, luciferase [nM]
GOMP001_bsAb_043 (bispecific antibody, human IgG1, kappa, L234A L235A) heavy 1: QVQLVQSGAEVKKPGASVKVSCKASGYTFTSHWMHWVRKAPGQGLEWIGEFNPSNGRTNYNEEFKSKATMTVDTSTNTAYMELSSLRSEDTAVYYCASRDYDYDGRYFDYWGQGTLVTVSSASTKGPSVFPLAPSSKSTSGGTAALGCLVADYFPEPVTVSWNSGALTSGVHTFPAVLQSSGLYSLSSVVTVPSSSLGTQTYICNVNHKPSNTKVDEKVEPKSCDKTHTCPPCPAPEAAGGPSVFLFPPKPKDTLMISRTPEVTCVVVDVSHEDPEVKFNWYVDGVEVHNAKTKPREEQYNSTYRVVSVLTVLHQDWLNGKEYKCKVSNKALPAPIEKTISKAKGQPREPQVYTLPPSREEMTDNQVSLTCLVKGFYPSDIAVEWESNGQPENNYKTTPPVLMSDGSFFLASKLTVDKSRWQQGNVFSCSVMHEALHNHYTQKSLSLSPG light 1: RIQMTQSPSSLSASVGDRVTITCSASSSVTYMYWYQDKPGKAPKLLIYDTSNLASGVPSRFSGSGSGTDYTFTISSLQPEDIATYYCQQWSSHIFTFGQGTKVEIKRTVAAPSVFIFPPSDKQLKSGTARVVCLLNNFYPREAKVQWKVDNALQSGNSQESVTEQDSKDSTYSLSSTLTLSKADYEKHKVYACEVTHQGLSSPVTKSFNRGEC heavy 2: EVQLVESGGGLVKTGGSLRLSCVASGFSFKKAWMNWVRYAPGKGLEWVGRIKRNTDGGTADYAARVKGRFTLSRDDSKKTLFLQMNSLKTEDTAVYYCTTLDSSSYYVGYYYMDVWGRGTTVTVSSASTKGPSVFPLAPSSKSTSGGTAALGCLVKDYFPEPVTVSWNSGALTSGVHTFPAVLQSSGLYSLSSVVTVPSSSLGTQTYICNVNHKPSNTKVDKKVEPKSCDKTHTCPPCPAPEAAGGPSVFLFPPKPKDTLMISRTPEVTCVVVDVSHEDPEVKFNWYVDGVEVHNAKTKPREEQYNSTYRVVSVLTVLHQDWLNGKEYKCKVSNKALPAPIEKTISKAKGQPRRPRVYTLPPSREEMTKNQVSLVCLVKGFYPSDIAVEWESNGQPENNYKTTPPVLDSDGSFFLYSVLTVDKSRWQQGNVFSCSVMHEALHNHYTQKSLSLSPG light 2: DIQMTQSPSSVSASVGDRVTITCRASQDINNWLAWYQRKPGDAPKLLIYTASSLQSGVPSRFSGSGSGTDFTLTIGSLQPEDFATYYCQQAHSLPITFGQGTRLEIKRTVAAPSVFIFPPSDEQLKSGTASVVCLLNNFYPREAKVQWKVDNALQSGNSQESVTEQDSKDSTYSLSSTLTLSKADYEKHKVYACEVTHQGLSSPVTKSFNRGEC | 0.0706 | 0.0122
GOMP001_bsAb_044 (bispecific antibody, human IgG1, kappa, L234A L235A) heavy 1: EVQLVESGGGLVKTGGSLRLSCVASGFSFKKAWMNWVRYAPGKGLEWVGRIKRNTDGGTADYAARVKGRFTLSRDDSKKTLFLQMNSLKTEDTAVYYCTTLDSSSYYVGYYYMDVWGRGTTVTVSSASTKGPSVFPLAPSSKSTSGGTAALGCLVKDYFPEPVTVSWNSGALTSGVHTFPAVLQSSGLYSLSSVVTVPSSSLGTQTYICNVNHKPSNTKVDKKVEPKSCDKTHTCPPCPAPEAAGGPSVFLFPPKPKDTLMISRTPEVTCVVVDVSHEDPEVKFNWYVDGVEVHNAKTKPREEQYNSTYRVVSVLTVLHQDWLNGKEYKCKVSNKALPAPIEKTISKAKGQPRRPRVYTLPPSREEMTKNQVSLVCLVKGFYPSDIAVEWESNGQPENNYKTTPPVLDSDGSFFLYSVLTVDKSRWQQGNVFSCSVMHEALHNHYTQKSLSLSPG light 1: DIQMTQSPSSVSASVGDRVTITCRASQDINNWLAWYQRKPGDAPKLLIYTASSLQSGVPSRFSGSGSGTDFTLTIGSLQPEDFATYYCQQAHSLPITFGQGTRLEIKRTVAAPSVFIFPPSDEQLKSGTASVVCLLNNFYPREAKVQWKVDNALQSGNSQESVTEQDSKDSTYSLSSTLTLSKADYEKHKVYACEVTHQGLSSPVTKSFNRGEC heavy 2: QVQLVQSGAEVKKPGASVKVSCKASGYTFTSHWMHWVRYAPGQGLEWIGEFNPSNGRTNYNEKFKSKATMTVDTSTNTAYMELSSLRSEDTAVYYCASRDYDYDGRYFDYWGRGTLVTVSSASTKGPSVFPLAPSSKSTSGGTAALGCLVKDYFPEPVTVSWNSGALTSGVHTFPAVLQSSGLYSLSSVVTVPSSSLGTQTYICNVNHKPSNTKVDKKVEPKSCDKTHTCPPCPAPEAAGGPSVFLFPPKPKDTLMISRTPEVTCVVVDVSHEDPEVKFNWYVDGVEVHNAKTKPREEQYNSTYRVVSVLTVLHQDWLNGKEYKCKVSNKALPAPIEKTISKAKGQPRRPRVYTLPPSREEMTKNQVSLVCLVKGFYPSDIAVEWESNGQPENNYKTTPPVLDSDGSFFLYSVLTVDKSRWQQGNVFSCSVMHEALHNHYTQKSLSLSPG light 2: DIQMTQSPSSLSASVGDRVTITCSASSSVTYMYWYQRKPGDAPKLLIYDTSNLASGVPSRFSGSGSGTDYTFTISSLQPEDIATYYCQQWSSHIFTFGQGTKVEIKRTVAAPSVFIFPPSDEQLKSGTASVVCLLNNFYPREAKVQWKVDNALQSGNSQESVTEQDSKDSTYSLSSTLTLSKADYEKHKVYACEVTHQGLSSPVTKSFNRGEC | 0.0136 | 0.0041
GOMP001_bsAb_046 (bispecific antibody, human IgG1, kappa, L234A L235A) heavy 1: QVQLVQSGAEVKKPGASVKVSCKASGYTFTSHWMHWVRKAPGQGLEWIGEFNPSNGRTNYNEEFKSKATMTVDTSTNTAYMELSSLRSEDTAVYYCASRDYDYDGRYFDYWGQGTLVTVSSASTKGPSVFPLAPSSKSTSGGTAALGCLVADYFPEPVTVSWNSGALTSGVHTFPAVLQSSGLYSLSSVVTVPSSSLGTQTYICNVNHKPSNTKVDEKVEPKSCDKTHTCPPCPAPEAAGGPSVFLFPPKPKDTLMISRTPEVTCVVVDVSHEDPEVKFNWYVDGVEVHNAKTKPREEQYNSTYRVVSVLTVLHQDWLNGKEYKCKVSNKALPAPIEKTISKAKGQPREPQVYTLPPSREEMTDNQVSLTCLVKGFYPSDIAVEWESNGQPENNYKTTPPVLMSDGSFFLASKLTVDKSRWQQGNVFSCSVMHEALHNHYTQKSLSLSPG light 1: not shown heavy 2: QVQLVQSGAEVKKPGASVKVSCKASGYTFTSHWMHWVRYAPGQGLEWIGEFNPSNGRTNYNEKFKSKATMTVDTSTNTAYMELSSLRSEDTAVYYCASRDYDYDGRYFDYWGRGTLVTVSSASTKGPSVFPLAPSSKSTSGGTAALGCLVKDYFPEPVTVSWNSGALTSGVHTFPAVLQSSGLYSLSSVVTVPSSSLGTQTYICNVNHKPSNTKVDKKVEPKSCDKTHTCPPCPAPEAAGGPSVFLFPPKPKDTLMISRTPEVTCVVVDVSHEDPEVKFNWYVDGVEVHNAKTKPREEQYNSTYRVVSVLTVLHQDWLNGKEYKCKVSNKALPAPIEKTISKAKGQPRRPRVYTLPPSREEMTKNQVSLVCLVKGFYPSDIAVEWESNGQPENNYKTTPPVLDSDGSFFLYSVLTVDKSRWQQGNVFSCSVMHEALHNHYTQKSLSLSPG light 2: DIQMTQSPSSLSASVGDRVTITCSASSSVTYMYWYQRKPGDAPKLLIYDTSNLASGVPSRFSGSGSGTDYTFTISSLQPEDIATYYCQQWSSHIFTFGQGTKVEIKRTVAAPSVFIFPPSDEQLKSGTASVVCLLNNFYPREAKVQWKVDNALQSGNSQESVTEQDSKDSTYSLSSTLTLSKADYEKHKVYACEVTHQGLSSPVTKSFNRGEC | 0.02 | 0.00409
GOMP001_bsAb_049 (bispecific antibody, human IgG1, kappa, L234A L235A) heavy 1: QVQLVQSGAEVKKPGASVKVSCKASGYTFTSHWMHWVRKAPGQGLEWIGEFNPSNGRTNYNEEFKSKATMTVDTSTNTAYMELSSLRSEDTAVYYCASRDYDYDGRYFDYWGQGTLVTVSSASTKGPSVFPLAPSSKSTSGGTAALGCLVADYFPEPVTVSWNSGALTSGVHTFPAVLQSSGLYSLSSVVTVPSSSLGTQTYICNVNHKPSNTKVDEKVEPKSCDKTHTCPPCPAPEAAGGPSVFLFPPKPKDTLMISRTPEVTCVVVDVSHEDPEVKFNWYVDGVEVHNAKTKPREEQYNSTYRVVSVLTVLHQDWLNGKEYKCKVSNKALPAPIEKTISKAKGQPREPQVYTLPPSREEMTDNQVSLTCLVKGFYPSDIAVEWESNGQPENNYKTTPPVLMSDGSFFLASKLTVDKSRWQQGNVFSCSVMHEALHNHYTQKSLSLSPG light 1: RIQMTQSPSSLSASVGDRVTITCSASSSVTYMYWYQDKPGKAPKLLIYDTSNLASGVPSRFSGSGSGTDYTFTISSLQPEDIATYYCQQWSSHIFTFGQGTKVEIKRTVAAPSVFIFPPSDKQLKSGTARVVCLLNNFYPREAKVQWKVDNALQSGNSQESVTEQDSKDSTYSLSSTLTLSKADYEKHKVYACEVTHQGLSSPVTKSFNRGEC heavy 2: QVQLVESGGGVVQPGRSLRLSCAASGFTFSTYGMHWVRYAPGKGLEWVAVIWYDGSHKYYADRVKGRFTISRDNSKKTLYLQMNSLRAEDTGIYYCARTGISGNMSYFYFDHWGRGILVTVSSASTKGPSVFPLAPSSKSTSGGTAALGCLVKDYFPEPVTVSWNSGALTSGVHTFPAVLQSSGLYSLSSVVTVPSSSLGTQTYICNVNHKPSNTKVDKKVEPKSCDKTHTCPPCPAPEAAGGPSVFLFPPKPKDTLMISRTPEVTCVVVDVSHEDPEVKFNWYVDGVEVHNAKTKPREEQYNSTYRVVSVLTVLHQDWLNGKEYKCKVSNKALPAPIEKTISKAKGQPRRPRVYTLPPSREEMTKNQVSLVCLVKGFYPSDIAVEWESNGQPENNYKTTPPVLDSDGSFFLYSVLTVDKSRWQQGNVFSCSVMHEALHNHYTQKSLSLSPG light 2: not shown | – | 0.138
GOMP001_bsAb_045 (bispecific antibody, human IgG1, kappa, L234A L235A) heavy 1: QVQLVQSGAEVKKPGASVKVSCKASGYTFTSHWMHWVRKAPGQGLEWIGEFNPSNGRTNYNEEFKSKATMTVDTSTNTAYMELSSLRSEDTAVYYCASRDYDYDGRYFDYWGQGTLVTVSSASTKGPSVFPLAPSSKSTSGGTAALGCLVADYFPEPVTVSWNSGALTSGVHTFPAVLQSSGLYSLSSVVTVPSSSLGTQTYICNVNHKPSNTKVDEKVEPKSCDKTHTCPPCPAPEAAGGPSVFLFPPKPKDTLMISRTPEVTCVVVDVSHEDPEVKFNWYVDGVEVHNAKTKPREEQYNSTYRVVSVLTVLHQDWLNGKEYKCKVSNKALPAPIEKTISKAKGQPREPQVYTLPPSREEMTDNQVSLTCLVKGFYPSDIAVEWESNGQPENNYKTTPPVLMSDGSFFLASKLTVDKSRWQQGNVFSCSVMHEALHNHYTQKSLSLSPG light 1: RIQMTQSPSSLSASVGDRVTITCSASSSVTYMYWYQDKPGKAPKLLIYDTSNLASGVPSRFSGSGSGTDYTFTISSLQPEDIATYYCQQWSSHIFTFGQGTKVEIKRTVAAPSVFIFPPSDKQLKSGTARVVCLLNNFYPREAKVQWKVDNALQSGNSQESVTEQDSKDSTYSLSSTLTLSKADYEKHKVYACEVTHQGLSSPVTKSFNRGEC heavy 2: QVQLVQSGAEVKKPGASVKVSCKASGYTFTSHWMHWVRKAPGQGLEWIGEFNPSNGRTNYNEEFKSKATMTVDTSTNTAYMELSSLRSEDTAVYYCASRDYDYDGRYFDYWGQGTLVTVSSASTKGPSVFPLAPSSKSTSGGTAALGCLVADYFPEPVTVSWNSGALTSGVHTFPAVLQSSGLYSLSSVVTVPSSSLGTQTYICNVNHKPSNTKVDEKVEPKSCDKTHTCPPCPAPEAAGGPSVFLFPPKPKDTLMISRTPEVTCVVVDVSHEDPEVKFNWYVDGVEVHNAKTKPREEQYNSTYRVVSVLTVLHQDWLNGKEYKCKVSNKALPAPIEKTISKAKGQPREPQVYTLPPSREEMTDNQVSLTCLVKGFYPSDIAVEWESNGQPENNYKTTPPVLMSDGSFFLASKLTVDKSRWQQGNVFSCSVMHEALHNHYTQKSLSLSPG light 2: not shown | 0.071 | 0.00792
